“And” between values parts separate entries of the source, which are not always exact repeats. Equal entries are not always repeated.
Experiments:
[1] = biological target: Aged MuV nucleoprotein (NWT kept at 4 °C for 4 weeks, digested by residual impurities) (mumps virus) (UniProt Q77IS8); assay: cryo-EM structure; filaments of NWT after 4 weeks of digestion at 4 °C; helical reconstruction of three classes (NC_(helix-dense), NC_(helix-hyper), N_(ring-stacked) with C13 symmetry); with enwrapped RNA
[2] = biological target: the molecule itself; assay: cryo-EM structure; single particle analysis of freshly purified NWT rings with enwrapped E. coli RNA; ~1 mg/mL; 20 mM Tris-HCl pH 7.4, 150 mM NaCl; micrographs at 0°, 20° and 40° tilt; 2D classification and refinement with C13 or C14 symmetry

**Q.** For “Aged MuV nucleoprotein (NWT kept at 4 °C for 4 weeks, digested by residual impurities) (from UniProt Q77IS8 1-549) (domain or fragment)”, which stoichiometry N [1] is on record?
**A.** The stoichiometry N was 13 protomers.

B1: Mumps virus (MuV) nucleoprotein, full length (1–549), freshly purified (natural protein)
chain: MSSVLKAFERFTIEQELQDRGEEGSIPPETLKSAVKVFVINTPNPTTRYQMLNFCLRIICSQNARASHRVGALITLFSLPSAGMQNHIRLADRSPEAQIERCEIDGFEPGTYRLIPNARANLTANEIAAYALLADDLPPTINNGTPYVHADVEGQPCDEIEQFLDRCYSVLIQAWVMVCKCMTAYDQPAGSADRRFAKYQQQGRLEARYMLQPEAQRLIQTAIRKSLVVRQYLTFELQLARRQGLLSNRYYAMVGDIGKYIENSGLTAFFLTLKYALGTKWSPLSLAAFTGELTKLRSLMMLYRGLGEQARYLALLEAPQIMDFAPGGYPLIFSYAMGVGTVLDVQMRNYTYARPFLNGYYFQIGVETARRQQGTVDNRVADDLGLTPEQRTEVTQLVDRLARGRGAGIPGGPVNPFVPPVQQQQPAAVYEDIPALEESDDDGDEDGGAGFQNGVQLPAVRQGGQTDFRAQPLQDPIQAQLFMPLYPQVSNMPNNQNHQINRIGGLEHQDLLRYNENGDSQQDARGEHVNTFPNNPNQNAQLQVGDWDE
notes: Mumps virus nucleoprotein (N), full-length gene 1–549, synthesized by GenScript, cloned into pET28b; Purified with enwrapped endogenous E. coli RNA; Only residues 1–373 are resolved in the maps; also called NWT; MuV nucleoproteins; source: E. coli, purified (nickel-nitrilotriacetic acid resin, Superose 6 gel filtration), freshly made
**Q.** For B1, which “stoichiometry N” value [2] is on record?
**A.** Its value is 13 protomers and 14 protomers.
